± gives the standard deviation of the averaged measurements.
System: Sindbis virus TE/5'2J-GFP
Experiment: percent infected (GFP+ in RFP+ ISG-expressing cells); higher = more infection (less antiviral activity)
Description: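 Confirmatory testing of 87 ISGs. Triplicate wells of BHK/HA-Zeo (control) or BHK/NZAP-Zeo (ZAP) cells were transduced with lentiviruses co-expressing a human ISG plus TagRFP, then infected 48 h later with SINV TE/5'2J-GFP (moi 5). The % GFP+ cells among RFP+ cells was measured by flow cytometry at 8 h post infection. Fluc lentivirus served as control. Three independent experiments.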

[1] = experiment: confirmatory screen 1, BHK/HA-Zeo (control)
[2] = experiment: confirmatory screen 1, BHK/NZAP-Zeo (ZAP)
[3] = experiment: confirmatory screen 2, BHK/HA-Zeo (control)
[4] = experiment: confirmatory screen 2, BHK/NZAP-Zeo (ZAP)
[5] = experiment: confirmatory screen 3, BHK/HA-Zeo (control)
[6] = experiment: confirmatory screen 3, BHK/NZAP-Zeo (ZAP)
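Note: Interferon-defective BHK-21 derivatives, ZAP line overexpressing the rat ZAP N-terminal zinc finger domain fused to Zeocin resistance, GFP scored within live singlet TagRFP+ cells.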

Sequence	percent infected [1] [%]	percent infected [2] [%]	percent infected [3] [%]	percent infected [4] [%]	percent infected [5] [%]	percent infected [6] [%]
MHQSLTQQRSSDMSLPDSMGAFNRRKRNSIYVTVTLLIVSVLILTVGLAATTRTQNVTVGGYYPGVILGFGSFLGIIGSNLIENKRQMLVASIVFISFGVIAAFCCAIVDGVFAARHIDLKPLYANRCHYVPKTSQKEAEEVISSSTKNSPSTRVMRNLTQAAREVNCPHLSREFCTPRIRGNTCFCCDLYNCGNRVEITGGYYEYIDVSSCQDIIHLYHLLWSATILNIVGLFLGIITAAVLGGFKDMNPTLPALNCSVENTHPTVSYYAHPQVASYNTYYHSPPHLPPYSAYDFQHSGVFPSSPPSGLSDEPQSASPSPSYMWSSSAPPRYSPPYYPPFEKPPPYSP [FAM70A]	97.01 ± 0.45	75.9 ± 2.9	96.07 ± 0.48	95.55 ± 0.12	94.9 ± 0.5	94.05 ± 0.37
MIAAQAKLVYQLNKYYTERCQARKAAIAKTIREVCKVVSDVLKEVEVQEPRFISSLSEIDARYEGLEVISPTEFEVVLYLNQMGVFNFVDDGSLPGCAVLKLSDGRKRSMSLWVEFITASGYLSARKIRSRFQTLVAQAVDKCSYRDVVKMIADTSEVKLRIRERYVVQITPAFKCTGIWPRSAAQWPMPHIPWPGPNRVAEVKAEGFNLLSKECYSLTGKQSSAESDAWVLQFGEAENRLLMGGCRNKCLSVLKTLRDRHLELPGQPLNNYHMKTLLLYECEKHPRETDWDESCLGDRLNGILLQLISCLQCRRCPHYFLPNLDLFQGKPHSALESAAKQTWRLAREILTNPKSLDKL [MAB21L2]	77.4 ± 7.3	48.7 ± 1.9	93.37 ± 0.82	93.8 ± 0.28	85.5 ± 3.3	86.9 ± 0.91
MKEDCLPSSHVPISDSKSIQKSELLGLLKTYNCYHEGKSFQLRHREEEGTLIIEGLLNIAWGLRRPIRLQMQDDREQVHLPSTSWMPRRPSCPLKEPSPQNGNITAQGPSIQPVHKAESSTDSSGPLEEAEEAPQLMRTKSDASCMSQRRPKCRAPGEAQRIRRHRFSINGHFYNHKTSVFTPAYGSVTNVRVNSTMTTLQVLTLLLNKFRVEDGPSEFALYIVHESGERTKLKDCEYPLISRILHGPCEKIARIFLMEADLGVEVPHEVAQYIKFEMPVLDSFVEKLKEEEEREIIKLTMKFQALRLTMLQRLEQLVEAK [RASSF4]	80.1 ± 2.3	56.3 ± 1.3	94.73 ± 0.66	94.93 ± 0.39	89.1 ± 0.9	89.9 ± 1.3
MKKSGVLFLLGIILLVLIGVQGTPVVRKGRCSCISTNQGTIHLQSLKDLKQFAPSPSCEKIEIIATLKNGVQTCLNPDSADVKELIKKWEKQVSQKKKQKNGKKHQKKKVLKVRKSQRSRQKKTT [CXCL9]	61.9 ± 6.1	44.7 ± 2.9	88.7 ± 2.5	91.55 ± 0.18	83.1 ± 1.5	82 ± 1.1
MKLRSSHNASKTLNANNMETLIECQSEGDIKEHPLLASCESEDSICQLIEVKKRKKVLSWPFLMRRLSPASDFSGALETDLKASLFDQPLSIICGDSDTLPRPIQDILTILCLKGPSTEGIFRRAANEKARKELKEELNSGDAVDLERLPVHLLAVVFKDFLRSIPRKLLSSDLFEEWMGALEMQDEEDRIEALKQVADKLPRPNLLLLKHLVYVLHLISKNSEVNRMDSSNLAICIGPNMLTLENDQSLSFEAQKDLNNKVKTLVEFLIDNCFEIFGENIPVHSSITSDDSLEHTDSSDVSTLQNDSAYDSNDPDVESNSSSGISSPSRQPQVPMATAAGLDSAGPQDAREVSPEPIVSTVARLKSSLAQPDRRYSEPSMPSSQECLESRVTNQTLTKSEGDFPVPRVGSRLESEEAEDPFPEEVFPAVQGKTKRPVDLKIKNLAPGSVLPRALVLKAFSSSSLDASSDSSPVASPSSPKRNFFSRHQSFTTKTEKGKPSREIKKHSMSFTFAPHKKVLTKNLSAGSGKSQDFTRDHVPRGVRKESQLAGRIVQENGCETHNQTARGFCLRPHALSVDDVFQGADWERPGSPPSYEEAMQGPAARLVASESQTVGSMTVGSMRARMLEAHCLLPPLPPAHHVEDSRHRGSKEPLPGHGLSPLPERWKQSRTVHASGDSLGHVSGPGRPELLPLRTVSESVQRNKRDCLVRRCSQPVFEADQFQYAKESYI [TAGAP]	91.3 ± 3	64.8 ± 2.3	86.1 ± 4.6	92.53 ± 0.75	85 ± 2	89.95 ± 0.44
MKTFTWTLGVLFFLLVDTGHCRGGQFKIKKINQRRYPRATDGKEEAKKCAYTFLVPEQRITGPICVNTKGQDASTIKDMITRMDLENLKDVLSRQKREIDVLQLVVDVDGNIVNEVKLLRKESRNMNSRVTQLYMQLLHEIIRKRDNSLELSQLENKILNVTTEMLKMATRYRELEVKYASLTDLVNNQSVMITLLEEQCLRIFSRQDTHVSPPLVQVVPQHIPNSQQYTPGLLGGNEIQRDPGYPRDLMPPPDLATSPTKSPFKIPPVTFINEGPFKDCQQAKEAGHSVSGIYMIKPENSNGPMQLWCENSLDPGGWTVIQKRTDGSVNFFRNWENYKKGFGNIDGEYWLGLENIYMLSNQDNYKLLIELEDWSDKKVYAEYSSFRLEPESEFYRLRLGTYQGNAGDSMMWHNGKQFTTLDRDKDMYAGNCAHFHKGGWWYNACAHSNLNGVWYRGGHYRSKHQDGIFWAEYRGGSYSLRAVQMMIKPID [ANGPTL1]	94.8 ± 1.7	76.2 ± 1.6	95.66 ± 0.28	94.3 ± 2.2	94.73 ± 0.38	94.71 ± 0.28
MKVSAAALAVILIATALCAPASASPYSSDTTPCCFAYIARPLPRAHIKEYFYTSGKCSNPAVVFVTRKNRQVCANPEKKWVREYINSLEMS [CCL5]	95.946 ± 0.068	69.5 ± 4.5	94.757 ± 0.09	93.5 ± 1.5	92.85 ± 0.85	93.25 ± 0.49
MLLRSKPALPPPLMLLLLGPLGPLSPGALPRPAQAQDVVDLDFFTQEPLHLVSPSFLSVTIDANLATDPRFLILLGSPKLRTLARGLSPAYLRFGGTKTDFLIFDPKKESTFEERSYWQSQVNQDICKYGSIPPDVEEKLRLEWPYQEQLLLREHYQKKFKNSTYSRSSVDVLYTFANCSGLDLIFGLNALLRTADLQWNSSNAQLLLDYCSSKGYNISWELGNEPNSFLKKADIFINGSQLGEDFIQLHKLLRKSTFKNAKLYGPDVGQPRRKTAKMLKSFLKAGGEVIDSVTWHHYYLNGRTATKEDFLNPDVLDIFISSVQKVFQVVESTRPGKKVWLGETSSAYGGGAPLLSDTFAAGFMWLDKLGLSARMGIEVVMRQVFFGAGNYHLVDENFDPLPDYWLSLLFKKLVGTKVLMASVQGSKRRKLRVYLHCTNTDNPRYKEGDLTLYAINLHNVTKYLRLPYPFSNKQVDKYLLRPLGPHGLLSKSVQLNGLTLKMVDDQTLPPLMEKPLRPGSSLGLPAFSYSFFVIRNAKVAACI [HPSE]	97.15 ± 0.33	79.82 ± 0.76	96 ± 1.1	95.86 ± 0.27	90.1 ± 0.52	90.5 ± 1.7
MLQRGLWPWRTRLLPTPGTWRPARPWPLPPPPQVLRVKLCGNVKYYQSHHYSTVVPPDEITVIYRHGLPLVTLTLPSRKERCQFVVKPMLSTVGSFLQDLQNEDKGIKTAAIFTADGNMISASTLMDILLMNDFKLVINKIAYDVQCPKREKPSNEHTAEMEHMKSLVHRLFTILHLEESQKKREHHLLEKIDHLKEQLQPLEQVKAGIEAHSEAKTSGLLWAGLALLSIQGGALAWLTWWVYSWDIMEPVTYFITFANSMVFFAYFIVTRQDYTYSAVKSRQFLQFFHKKSKQQHFDVQQYNKLKEDLAKAKESLKQARHSLCLQMQVEELNEKN [CCDC109B]	92.6 ± 2.3	57.4 ± 2	97.29 ± 0.17	95.61 ± 0.13	95.11 ± 0.48	93.64 ± 0.74
MLRAGAPTGDLPRAGEVHTGTTIMAVEFDGGVVMGSDSRVSAGEAVVNRVFDKLSPLHERIYCALSGSAADAQAVADMAAYQLELHGIELEEPPLVLAAANVVRNISYKYREDLSAHLMVAGWDQREGGQVYGTLGGMLTRQPFAIGGSGSTFIYGYVDAAYKPGMSPEECRRFTTDAIALAMSRDGSSGGVIYLVTITAAGVDHRVILGNELPKFYDE [PSMB9]	80 ± 1.9	24.2 ± 0.77	90.2 ± 1.4	91.27 ± 0.32	87.59 ± 0.53	83.1 ± 1.6

Reference: the supplement of paper PMC3353916
